Reference: patent publication US20110239311

Tests used:
[1] = test system: GST-NR2F6 fusion protein, wild-type, full-length (purified recombinant)
[2] = test system: GST-NR2F6 fusion protein, S83A mutant, full-length
[3] = test system: GST-NR2F6 fusion protein, S89A mutant, full-length
Chain of GST-NR2F6 fusion protein, S89A mutant, full-length (chain, as listed by the source S89A): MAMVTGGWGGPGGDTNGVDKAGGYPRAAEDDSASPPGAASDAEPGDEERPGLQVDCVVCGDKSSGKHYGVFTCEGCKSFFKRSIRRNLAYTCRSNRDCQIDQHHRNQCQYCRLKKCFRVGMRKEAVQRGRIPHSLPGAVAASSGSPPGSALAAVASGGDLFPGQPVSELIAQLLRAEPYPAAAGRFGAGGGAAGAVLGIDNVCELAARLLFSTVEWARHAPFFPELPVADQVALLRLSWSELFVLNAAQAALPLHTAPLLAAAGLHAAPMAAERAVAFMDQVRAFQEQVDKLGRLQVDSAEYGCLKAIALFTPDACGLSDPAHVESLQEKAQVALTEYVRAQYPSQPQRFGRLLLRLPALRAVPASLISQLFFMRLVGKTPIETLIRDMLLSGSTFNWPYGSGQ

Chain of GST-NR2F6 fusion protein, S83A mutant, full-length (chain, as listed by the source S83A): as the sequence (chain, as listed by the source S89A) above, with S83A, A89S counted along it
Chain of GST-NR2F6 fusion protein, wild-type, full-length (purified recombinant) (chain, as listed by the source): as the sequence (chain, as listed by the source S89A) above, with A89S counted along it
Chain of recombinant PKCtheta (Q04759 whole entry): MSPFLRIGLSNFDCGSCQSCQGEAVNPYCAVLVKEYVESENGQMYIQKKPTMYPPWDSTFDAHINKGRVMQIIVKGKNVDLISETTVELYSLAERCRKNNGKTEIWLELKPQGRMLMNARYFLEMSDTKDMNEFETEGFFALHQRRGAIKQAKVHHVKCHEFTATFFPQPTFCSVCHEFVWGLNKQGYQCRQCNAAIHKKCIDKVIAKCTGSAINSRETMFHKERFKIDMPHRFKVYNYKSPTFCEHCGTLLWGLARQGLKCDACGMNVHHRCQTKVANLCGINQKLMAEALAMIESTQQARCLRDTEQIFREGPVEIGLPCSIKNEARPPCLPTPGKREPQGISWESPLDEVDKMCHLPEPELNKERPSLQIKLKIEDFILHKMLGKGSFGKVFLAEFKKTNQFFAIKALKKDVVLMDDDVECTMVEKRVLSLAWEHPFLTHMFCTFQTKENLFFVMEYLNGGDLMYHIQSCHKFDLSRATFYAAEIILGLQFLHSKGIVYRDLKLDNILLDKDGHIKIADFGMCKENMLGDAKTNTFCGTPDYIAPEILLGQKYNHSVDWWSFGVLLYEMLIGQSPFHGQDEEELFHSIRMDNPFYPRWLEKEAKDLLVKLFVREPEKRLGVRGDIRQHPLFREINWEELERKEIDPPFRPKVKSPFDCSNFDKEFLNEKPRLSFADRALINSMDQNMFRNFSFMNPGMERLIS

Substance | in vitro protein kinase assay (32P incorporation into GST-NR2F6) [1] | in vitro protein kinase assay (32P incorporation into GST-NR2F6) [2] | in vitro protein kinase assay (32P incorporation into GST-NR2F6) [3]
Protein kinase A (PKA) | (but not PKCzeta or PKA) were able to phosphorylate recombinant NR2F6 in vitro | – | –
recombinant PKCalpha | PKCalpha, delta and theta (but not PKCzeta or PKA) were able to phosphorylate recombinant NR2F6 in vitro | This phosphorylation was lost after the predicted phosphorylation site at Ser-83 (but not at Ser-89) was mutated in the full-length NR2F6 protein | This phosphorylation was lost after the predicted phosphorylation site at Ser-83 (but not at Ser-89) was mutated in the full-length NR2F6 protein
recombinant PKCdelta | PKCalpha, delta and theta (but not PKCzeta or PKA) were able to phosphorylate recombinant NR2F6 in vitro | This phosphorylation was lost after the predicted phosphorylation site at Ser-83 (but not at Ser-89) was mutated in the full-length NR2F6 protein | This phosphorylation was lost after the predicted phosphorylation site at Ser-83 (but not at Ser-89) was mutated in the full-length NR2F6 protein
recombinant PKCtheta | PKCalpha, delta and theta (but not PKCzeta or PKA) were able to phosphorylate recombinant NR2F6 in vitro | This phosphorylation was lost after the predicted phosphorylation site at Ser-83 (but not at Ser-89) was mutated in the full-length NR2F6 protein | This phosphorylation was lost after the predicted phosphorylation site at Ser-83 (but not at Ser-89) was mutated in the full-length NR2F6 protein
